Reference: US20240408248A1, “GRANZYME B-TARGETING COMPLEX, RADIOPHARMACEUTICAL, PREPARATION METHOD THEREFOR AND USE THEREOF” (priority 2021, published 2024)

How the values were obtained:
tumor Granzyme B [1] = target: T1, tumor Granzyme B (Mus musculus, UniProt P04187); assay: PET/CT imaging in MC38 tumor-bearing mice, comparison with radiopharmaceuticals with similar structures; type: in vivo, C57 mice; conditions: 7.4 MBq via tail vein, 0.5 h after injection, compared with the other three comparative radiopharmaceuticals
T1 construct: from tissue; host or cells: MC38 tumors in living C57 mice
T1 sequence (P04187 21-247): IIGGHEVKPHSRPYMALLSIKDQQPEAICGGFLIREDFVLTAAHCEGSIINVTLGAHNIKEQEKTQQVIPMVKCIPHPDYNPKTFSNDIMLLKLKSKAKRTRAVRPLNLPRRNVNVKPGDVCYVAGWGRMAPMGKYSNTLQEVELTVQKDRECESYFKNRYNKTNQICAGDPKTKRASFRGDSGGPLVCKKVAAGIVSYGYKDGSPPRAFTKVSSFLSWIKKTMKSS
Experimental: In order to compare the in vivo nuclear medicine imaging advantages of the Granzyme B-targeting complex of the present invention, three Granzyme B-targeting complexes with similar structures are prepared by a similar synthesis method. All of them were labeled with ^68Ga after DOTA coupling to obtain the corresponding Granzyme B-targeting radioactive compounds. 7.4 MBq of the freshly prepared ^68Ga-labeled complex was taken and injected into female C57 mice bearing MC38 tumors via the tail vein. After injection for 0.5 h, the animals were anesthetized with isoflurane for PET/CT imaging. The result is illustrated in FIG. 11, showing that the ^68Ga-labelled DOTA complex of the present invention had optimal tumor Granzyme B uptake and low normal tissue (e.g. gastrointestinal tract) uptake compared with the other three comparative radiopharmaceuticals.

[2] = target: T2, Granzyme B in MC38 tumors (Mus musculus, UniProt P04187); design: species or system C57 mice; conditions: in vivo
T2 construct: from tissue; host or cells: MC38 tumors in living C57 mice
T2 sequence (P04187 21-247): T1 sequence (P04187 21-247)
Experimental: (§1) MC38 and 4T1 tumor cells were inoculated subcutaneously in the right axilla of C57 and BALB/c mice, respectively, to establish immunotherapy pseudo-progression and true-progression mouse models. 200 μg of the anti-PD-1 antibody and anti-CTLA-4 antibody were injected intraperitoneally for a total of 3 times on days 0, 3 and 6, respectively. […] After injection for 0.5 h, the animals were anesthetized with isoflurane for PET/CT imaging. The changes of the tumor size in MC38 and 4T1 tumor-bearing mice were measured by a vernier caliper.

Granzyme B in 4T1 tumors = target: T3, Granzyme B in 4T1 tumors (Mus musculus, UniProt P04187); design: species or system BALB/c mice; conditions: in vivo
T3 construct: from tissue; host or cells: 4T1 tumors in living BALB/c mice
T3 sequence (P04187 21-247): T1 sequence (P04187 21-247)
Experimental: as §1

tumor Granzyme B [3] = target: T1, tumor Granzyme B; assay: SPECT/CT imaging of tumor Granzyme B in MC38 tumor-bearing mice; type: in vivo, C57 mice; conditions: 18.5 MBq via tail vein, 0.5 h after injection
Experimental: SPECT imaging of tumor Granzyme B with a ^99mTc-labeled HYNIC complex. 18.5 MBq of the freshly prepared ^99mTc-labeled HYNIC complex was taken and injected into female C57 mice bearing MC38 tumors in the right axilla via the tail vein. After injection for 0.5 h, the animals were anesthetized with isoflurane for SPECT/CT imaging.

CC[C@H](C)[C@H](NC(=O)Cc1cccc(CNC(=O)C[C@H](NC(=O)C[C@H](NC(=O)CN2CCN(CC(=O)O)CCN(CC(=O)O)CCN(CC(=O)O)CC2)C(=O)O)C(=O)O)c1)C(=O)N[C@H]1CCc2cccc3c2N(C1=O)[C@H](C(=O)NCc1cn[nH]n1)C3 [^68Ga-labeled DOTA complex, metal not drawn]
normal tissue (e.g. gastrointestinal tract) uptake (tumor Granzyme B [1]): low
tumor uptake at day 6 versus day 0 [2]: significantly higher than that at day 0
tumor uptake on day 6 versus day 0 (Granzyme B in 4T1 tumors): no significant difference

CC[C@H](C)[C@H](NC(=O)Cc1cccc(CNC(=O)C[C@H](NC(=O)C[C@H](NC(=O)c2ccc(NN)nc2)C(=O)O)C(=O)O)c1)C(=O)N[C@H]1CCc2cccc3c2N(C1=O)[C@H](C(=O)NCc1cn[nH]n1)C3 [^99mTc-labeled HYNIC complex, metal not drawn]
uptake value in MC38 tumors (SPECT) (tumor Granzyme B [3]): good uptake value
